Laboratory results from patent US20050244864A1, “Development and use of fluorescent probes of unbound analytes” (priority 2004, published 2005).

Experiments:
Type in all cases: binding
[1] = Probe fluorescence ratio response to arachidonate:BSA complex, relative to ADIFAB2 (ΔR/ΔRAD2); details: fluorescence response (R-Ro) relative to ADIFAB2; arachidonate
Method in brief: (§1)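 Mutant probes were screened against fatty acid:BSA complexes made by adding fatty acid sodium salts at pH 11 to BSA in HEPES, titrated until ADIFAB2 gave ΔR ≈0.4 ([FFAu] 100–1000 nM). Wells held 6 μM BSA; excitation 375 nm, emission 550/457 nm, background-subtracted.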

[2] = Probe fluorescence ratio response to linolenate:BSA complex, relative to ADIFAB2 (ΔR/ΔRAD2); details: fluorescence response (R-Ro) relative to ADIFAB2; linolenate
Method in brief: as §1

[3] = Probe fluorescence ratio response to palmitate:BSA complex, relative to ADIFAB2 (ΔR/ΔRAD2); details: fluorescence response (R-Ro) relative to ADIFAB2; palmitate
Method in brief: as §1

[4] = Probe fluorescence ratio response to oleate:BSA complex, relative to ADIFAB2 (ΔR/ΔRAD2); details: fluorescence response (R-Ro) relative to ADIFAB2; oleate
Method in brief: as §1

[5] = Probe fluorescence ratio response to stearate:BSA complex, relative to ADIFAB2 (ΔR/ΔRAD2); details: fluorescence response (R-Ro) relative to ADIFAB2
[6] = Probe fluorescence ratio response to linoleate:BSA complex, relative to ADIFAB2 (ΔR/ΔRAD2); details: fluorescence response (R-Ro) relative to ADIFAB2; linoleate
Method in brief: as §1

[7] = Probe fluorescence ratio response to palmitoleate:BSA complex, relative to ADIFAB2 (ΔR/ΔRAD2); details: fluorescence response (R-Ro) relative to ADIFAB2

Molecule | ΔR/ΔRAD2 AA [1] | ΔR/ΔRAD2 LNA [2] | ΔR/ΔRAD2 PA [3] | ΔR/ΔRAD2 OA [4] | ΔR/ΔRAD2 SA [5] | ΔR/ΔRAD2 LA [6] | ΔR/ΔRAD2 POA [7]
L2P8F11: acrylodan-labeled rI-FABP-L72A mutein: M18 WT, G31 WT, F55 WT, A73 I (protein, UniProt P02693 2-132, looked up, variant L72A A73I, acrylodan label, acrylodan-labeled rI-FABP-L72A mutein: M18 WT, G31 WT, F55 WT, A73 I) Fatty acid-binding protein, …: AFDGTWKVDRNENYEKFMEKMGINVVKRKLGAHDNLKLTITQEGNKFTVKESSNFRNIDVVFELGVDFAYSAIDGTELTGTWTMEGNKLVGKFKRVDNGKELIAVREISGNELIQTYTYEGVEAKRIFKKE | 0.4 | 0.1 | 0.0 | 0.0 | 0.3 | 0.0 | 0.1
L2P23A4: acrylodan-labeled rI-FABP-L72A mutein: M18 V, G31 I, F55 L, A73 V (protein, UniProt P02693 2-132, looked up, variant M18V G31I F55L L72A A73V, acrylodan label) Fatty acid-binding protein, …: AFDGTWKVDRNENYEKFVEKMGINVVKRKLIAHDNLKLTITQEGNKFTVKESSNLRNIDVVFELGVDFAYSAVDGTELTGTWTMEGNKLVGKFKRVDNGKELIAVREISGNELIQTYTYEGVEAKRIFKKE | 2.8 | 2.6 | 1.9 | 2.3 | 1.2 | 3.1 | 2.8
L2P22H10: acrylodan-labeled rI-FABP-L72A mutein: M18 I, G31 WT, F55 G, A73 M (protein, UniProt P02693 2-132, looked up, variant M18I F55G L72A A73M, acrylodan label, acrylodan-labeled rI-FABP-L72A mutein: M18 I, G31 WT, F55 G, A73 M) Fatty acid-binding protein, …: AFDGTWKVDRNENYEKFIEKMGINVVKRKLGAHDNLKLTITQEGNKFTVKESSNGRNIDVVFELGVDFAYSAMDGTELTGTWTMEGNKLVGKFKRVDNGKELIAVREISGNELIQTYTYEGVEAKRIFKKE | 0.9 | 1.3 | 1.1 | 0.6 | 0.4 | 1.1 | 1.2
L2P17H10: acrylodan-labeled rI-FABP-L72A mutein: M18 G, G31 F, F55 WT, A73 L (protein, UniProt P02693 2-132, looked up, variant M18G G31F L72A A73L, acrylodan label, acrylodan-labeled rI-FABP-L72A mutein: M18 G, G31 F, F55 WT, A73 L) Fatty acid-binding protein, …: AFDGTWKVDRNENYEKFGEKMGINVVKRKLFAHDNLKLTITQEGNKFTVKESSNFRNIDVVFELGVDFAYSALDGTELTGTWTMEGNKLVGKFKRVDNGKELIAVREISGNELIQTYTYEGVEAKRIFKKE | 1.8 | 1.2 | 1.0 | 1.4 | 1.7 | 1.5 | 1.2
L2P12C5: acrylodan-labeled rI-FABP-L72A mutein: M18 I, G31 I, F55 M, A73 I (protein, UniProt P02693 2-132, looked up, variant M18I G31I F55M L72A A73I, acrylodan label) Fatty acid-binding protein, …: AFDGTWKVDRNENYEKFIEKMGINVVKRKLIAHDNLKLTITQEGNKFTVKESSNMRNIDVVFELGVDFAYSAIDGTELTGTWTMEGNKLVGKFKRVDNGKELIAVREISGNELIQTYTYEGVEAKRIFKKE | 1.3 | 1.7 | 1.5 | 0.8 | 0.4 | 1.5 | 1.9
L2P23G7: acrylodan-labeled rI-FABP-L72A mutein: M18 V, G31 F, F55 L, A73 WT (protein, UniProt P02693 2-132, looked up, variant M18V G31F F55L L72A, acrylodan label, acrylodan-labeled rI-FABP-L72A mutein: M18 V, G31 F, F55 L, A73 WT) Fatty acid-binding protein, …: AFDGTWKVDRNENYEKFVEKMGINVVKRKLFAHDNLKLTITQEGNKFTVKESSNLRNIDVVFELGVDFAYSAADGTELTGTWTMEGNKLVGKFKRVDNGKELIAVREISGNELIQTYTYEGVEAKRIFKKE | 0.9 | 1.2 | 1.0 | 0.6 | 0.4 | 1.0 | 1.4
L2P8A6: acrylodan-labeled rI-FABP-L72A mutein: M18 I, G31 V, F55 V, A73 V (protein, UniProt P02693 2-132, looked up, variant M18I G31V F55V L72A A73V, acrylodan label) Fatty acid-binding protein, …: AFDGTWKVDRNENYEKFIEKMGINVVKRKLVAHDNLKLTITQEGNKFTVKESSNVRNIDVVFELGVDFAYSAVDGTELTGTWTMEGNKLVGKFKRVDNGKELIAVREISGNELIQTYTYEGVEAKRIFKKE | 0.6 | 1.2 | 1.0 | 0.4 | 0.2 | 0.8 | 1.3
L2P8B8: acrylodan-labeled rI-FABP-L72A mutein: M18 WT, G31 WT, F55 WT, A73 F (protein, UniProt P02693 2-132, looked up, variant L72A A73F, acrylodan label, acrylodan-labeled rI-FABP-L72A mutein: M18 WT, G31 WT, F55 WT, A73 F) Fatty acid-binding protein, …: AFDGTWKVDRNENYEKFMEKMGINVVKRKLGAHDNLKLTITQEGNKFTVKESSNFRNIDVVFELGVDFAYSAFDGTELTGTWTMEGNKLVGKFKRVDNGKELIAVREISGNELIQTYTYEGVEAKRIFKKE | 1.1 | 1.8 | 1.1 | 0.6 | 0.4 | 1.2 | 2.4
L2P18H12: acrylodan-labeled rI-FABP-L72A mutein: M18 I, G31 V, F55 WT, A73 G (protein, UniProt P02693 2-132, looked up, variant M18I G31V L72A A73G, acrylodan label, acrylodan-labeled rI-FABP-L72A mutein: M18 I, G31 V, F55 WT, A73 G) Fatty acid-binding protein, …: AFDGTWKVDRNENYEKFIEKMGINVVKRKLVAHDNLKLTITQEGNKFTVKESSNFRNIDVVFELGVDFAYSAGDGTELTGTWTMEGNKLVGKFKRVDNGKELIAVREISGNELIQTYTYEGVEAKRIFKKE | 1.3 | 1.9 | 1.6 | 1.0 | 0.5 | 1.7 | 2.1
L2P21G3: acrylodan-labeled rI-FABP-L72A mutein: M18 I, G31 M, F55 M, A73 WT (protein, UniProt P02693 2-132, looked up, variant M18I G31M F55M L72A, acrylodan label, acrylodan-labeled rI-FABP-L72A mutein: M18 I, G31 M, F55 M, A73 WT) Fatty acid-binding protein, …: AFDGTWKVDRNENYEKFIEKMGINVVKRKLMAHDNLKLTITQEGNKFTVKESSNMRNIDVVFELGVDFAYSAADGTELTGTWTMEGNKLVGKFKRVDNGKELIAVREISGNELIQTYTYEGVEAKRIFKKE | 1.0 | 1.4 | 1.1 | 0.6 | 0.3 | 1.1 | 1.4
L2P7F4: acrylodan-labeled rI-FABP-L72A mutein: M18 V, G31 V, F55 WT, A73 I (protein, UniProt P02693 2-132, looked up, variant M18V G31V L72A A73I, acrylodan label, acrylodan-labeled rI-FABP-L72A mutein: M18 V, G31 V, F55 WT, A73 I) Fatty acid-binding protein, …: AFDGTWKVDRNENYEKFVEKMGINVVKRKLVAHDNLKLTITQEGNKFTVKESSNFRNIDVVFELGVDFAYSAIDGTELTGTWTMEGNKLVGKFKRVDNGKELIAVREISGNELIQTYTYEGVEAKRIFKKE | 0.8 | 1.5 | 1.3 | 0.6 | 0.3 | 1.1 | 1.3
L2P8A5: acrylodan-labeled rI-FABP-L72A mutein: M18 V, G31 A, F55 W, A73 W (protein, UniProt P02693 2-132, looked up, variant M18V G31A F55W L72A A73W, acrylodan label) Fatty acid-binding protein, …: AFDGTWKVDRNENYEKFVEKMGINVVKRKLAAHDNLKLTITQEGNKFTVKESSNWRNIDVVFELGVDFAYSAWDGTELTGTWTMEGNKLVGKFKRVDNGKELIAVREISGNELIQTYTYEGVEAKRIFKKE | 1.1 | 1.9 | 1.5 | 0.9 | 0.4 | 1.6 | 2.0
L2P22E6: acrylodan-labeled rI-FABP-L72A mutein: M18 V, G31 A, F55 I, A73 W (protein, UniProt P02693 2-132, looked up, variant M18V G31A F55I L72A A73W, acrylodan label, acrylodan-labeled rI-FABP-L72A mutein: M18 V, G31 A, F55 I, A73 W) Fatty acid-binding protein, …: AFDGTWKVDRNENYEKFVEKMGINVVKRKLAAHDNLKLTITQEGNKFTVKESSNIRNIDVVFELGVDFAYSAWDGTELTGTWTMEGNKLVGKFKRVDNGKELIAVREISGNELIQTYTYEGVEAKRIFKKE | 1.0 | 1.6 | 1.3 | 0.8 | 0.4 | 1.3 | 1.6
L2P16A3: acrylodan-labeled rI-FABP-L72A mutein: M18 I, G31 L, F55 WT, A73 G (protein, UniProt P02693 2-132, looked up, variant M18I G31L L72A A73G, acrylodan label, acrylodan-labeled rI-FABP-L72A mutein: M18 I, G31 L, F55 WT, A73 G) Fatty acid-binding protein, …: AFDGTWKVDRNENYEKFIEKMGINVVKRKLLAHDNLKLTITQEGNKFTVKESSNFRNIDVVFELGVDFAYSAGDGTELTGTWTMEGNKLVGKFKRVDNGKELIAVREISGNELIQTYTYEGVEAKRIFKKE | 1.0 | 1.5 | 1.1 | 0.6 | 0.3 | 1.1 | 1.4
L2P9E12: acrylodan-labeled rI-FABP-L72A mutein: M18 L, G31 WT, F55 L, A73 I (protein, UniProt P02693 2-132, looked up, variant M18L F55L L72A A73I, acrylodan label, acrylodan-labeled rI-FABP-L72A mutein: M18 L, G31 WT, F55 L, A73 I) Fatty acid-binding protein, …: AFDGTWKVDRNENYEKFLEKMGINVVKRKLGAHDNLKLTITQEGNKFTVKESSNLRNIDVVFELGVDFAYSAIDGTELTGTWTMEGNKLVGKFKRVDNGKELIAVREISGNELIQTYTYEGVEAKRIFKKE | 0.6 | 0.9 | 1.1 | 0.6 | 0.4 | 0.7 | 0.8
